For one experiment, the target named is T1, eHead_H1_v3.1_KO3_mC.
T1 chain: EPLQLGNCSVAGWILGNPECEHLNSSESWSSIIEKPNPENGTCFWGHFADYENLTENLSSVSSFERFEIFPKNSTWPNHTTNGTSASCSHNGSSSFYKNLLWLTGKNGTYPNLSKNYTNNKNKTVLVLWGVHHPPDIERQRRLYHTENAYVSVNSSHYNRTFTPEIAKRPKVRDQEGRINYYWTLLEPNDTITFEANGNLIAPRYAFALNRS
Kind of experiment: SPR.

The next experiment concerns the target T2, eHead_H1_v3.1_KO1_mC.
T2 chain: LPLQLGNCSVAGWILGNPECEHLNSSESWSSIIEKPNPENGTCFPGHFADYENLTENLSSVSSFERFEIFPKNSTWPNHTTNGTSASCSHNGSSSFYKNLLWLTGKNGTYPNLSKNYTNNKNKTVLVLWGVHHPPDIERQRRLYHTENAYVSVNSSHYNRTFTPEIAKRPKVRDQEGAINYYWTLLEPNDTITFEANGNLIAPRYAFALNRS
Kind of experiment: SPR. (Surface plasmon resonance follows binding to a sensor surface in real time, without labels.)

In the next experiment the target is T3, eHead_H1_g2.10_mC.
T3 chain: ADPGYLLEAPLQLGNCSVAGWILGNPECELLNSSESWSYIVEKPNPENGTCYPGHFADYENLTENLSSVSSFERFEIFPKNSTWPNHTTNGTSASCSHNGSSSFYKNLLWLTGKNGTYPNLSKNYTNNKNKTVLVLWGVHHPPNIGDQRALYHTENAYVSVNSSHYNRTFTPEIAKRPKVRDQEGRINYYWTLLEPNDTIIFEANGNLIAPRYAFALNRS
Kind of experiment: SPR; y axis without title or unit.

The target in the next experiment is T4, eHead_H1_v3.0_mC.
T4 engineered HA head domain: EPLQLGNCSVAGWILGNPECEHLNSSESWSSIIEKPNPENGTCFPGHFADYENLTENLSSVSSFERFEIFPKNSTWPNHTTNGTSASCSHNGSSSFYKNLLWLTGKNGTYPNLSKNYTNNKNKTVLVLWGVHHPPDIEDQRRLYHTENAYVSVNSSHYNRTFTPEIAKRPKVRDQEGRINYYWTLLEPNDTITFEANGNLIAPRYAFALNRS
Briefly: SPR; y axis without title or unit.

B1: FluA20 (as used in the SPR experiments of Example 4) (antibody, V domains shown)
VH: QVQLQESGPGLVKPSETLSLTCSVSGVSVTSDIYYWTWIRQPPGKGLEWIGYIFYNGDTNYNPSLKSRVTMSIDTSKNEFSLRLTSVTAADTAVYFCARGTEDLGYCSSGSCPNHWGQGTLVTVSS
VL: DIQMTQSPSSLSASIGDRVTITCRPSQNIRSFLNWFQHKPGKAPKLLIYAASNLQSGVPSRFSGSGSGTEFTLTIRSLQPEDFATYYCQQSYNTPPTFGQGTKVEIK
As for B1, the binding result with eHead_H1_v3.1_KO3_mC is reported as “no binding”; with eHead_H1_v3.1_KO1_mC, “no binding”; with eHead_H1_g2.10_mC, “binds”; with eHead_H1_v3.0_mC it was “binds”.

The record behind these values is patent US20220387578A1 (VANDERBILT UNIVERSITY, published 2022).
